T1: recombinant human DLL3 extracellular domain (R&D Systems, Cat #9749-DL) (human, UniProt Q9NYJ7 27-492)
T1 construct: Bought protein; also called soluble recombinant human DLL3 extracellular domain
T1 sequence: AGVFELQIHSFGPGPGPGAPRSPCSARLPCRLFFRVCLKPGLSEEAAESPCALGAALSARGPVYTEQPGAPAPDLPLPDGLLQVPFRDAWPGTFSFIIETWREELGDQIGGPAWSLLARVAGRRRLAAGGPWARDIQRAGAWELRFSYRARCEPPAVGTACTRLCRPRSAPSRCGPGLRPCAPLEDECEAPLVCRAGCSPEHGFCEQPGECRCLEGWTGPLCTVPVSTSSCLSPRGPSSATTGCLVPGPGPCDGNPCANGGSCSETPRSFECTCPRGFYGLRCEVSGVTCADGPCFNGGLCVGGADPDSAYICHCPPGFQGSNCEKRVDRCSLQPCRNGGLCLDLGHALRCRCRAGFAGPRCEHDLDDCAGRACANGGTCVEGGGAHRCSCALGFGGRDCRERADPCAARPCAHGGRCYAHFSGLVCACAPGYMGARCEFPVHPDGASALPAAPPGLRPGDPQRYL

T2: DLL3 on NCI-H82 cells (human, UniProt Q9NYJ7 27-618)
T2 construct: Endogenous DLL3 of NCI-H82 (DLL3+) cells; also called cell surface DLL3
T2 sequence: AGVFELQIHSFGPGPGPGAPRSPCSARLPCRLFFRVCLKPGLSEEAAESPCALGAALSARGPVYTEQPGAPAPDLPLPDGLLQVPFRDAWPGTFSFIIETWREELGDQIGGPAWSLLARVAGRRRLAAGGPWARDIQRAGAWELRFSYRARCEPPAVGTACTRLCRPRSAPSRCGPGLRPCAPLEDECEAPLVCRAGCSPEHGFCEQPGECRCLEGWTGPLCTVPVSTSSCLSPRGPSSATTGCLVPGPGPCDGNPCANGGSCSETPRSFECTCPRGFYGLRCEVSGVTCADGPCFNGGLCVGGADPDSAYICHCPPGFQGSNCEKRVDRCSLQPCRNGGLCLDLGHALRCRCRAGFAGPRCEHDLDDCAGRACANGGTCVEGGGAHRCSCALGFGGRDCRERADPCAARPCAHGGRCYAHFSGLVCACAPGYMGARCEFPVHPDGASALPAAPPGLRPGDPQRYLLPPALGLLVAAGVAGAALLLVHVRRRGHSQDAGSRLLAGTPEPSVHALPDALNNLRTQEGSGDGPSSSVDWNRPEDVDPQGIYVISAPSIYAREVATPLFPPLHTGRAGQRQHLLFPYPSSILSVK

B1: SEQ ID NO 616 (other)
VH: EVQLVESGGGLVQPGGSLRLSCAASGFNIHYEEIGWVRRAPGKGEELVARIYPTNGYTRYADSVKGRFTISADTSKNTAYLQMNSLRAEDTAVYYCARYSYYYHYGGGMDYSGQGTLVTVSS
notes: also called Humanized VH variant #11
B2: SEQ ID NO 615 (other)
VH: EVQLVESGGGLVQPGGSLRLSCAASGFNIHSYYIGWVRRAPGKGEELVARIYPTNGYTRYADSVKGRFTISADTSKNTAYLQMNSLRAEDTAVYYCARGYYGHEYDYHYDYYGGGFDYSGQGTLVTVSS
notes: also called Humanized VH variant #10
B3: SEQ ID NO 606 (other)
VH: EVQLVESGGGLVQPGGSLRLSCAASGFNISYYYIGWVRRAPGKGEELVARIYPTNGYTRYADSVKGRFTISADTSKNTAYLQMNSLRAEDTAVYYCARAYGDSDHYSEAIDYSGQGTLVTVSS
notes: also called Humanized VH variant #1
B4: SEQ ID NO 613 (other)
VH: EVQLVESGGGLVQPGGSLRLSCAASGFNIEYESIGWVRRAPGKGEELVARIYPTNGYTRYADSVKGRFTISADTSKNTAYLQMNSLRAEDTAVYYCARSEYSHYSGSHHYYALDYSGQGTLVTVSS
notes: also called Humanized VH variant #8
B5: SEQ ID NO 614 (other)
VH: B4 VH with E30S, Y31E, E32H, E100Y, S102H, H103G, G106H, S107G, L113I
notes: also called Humanized VH variant #9
B6: SEQ ID NO 618 (other)
VH: B4 VH with E30S, Y31E, E100Y, S102A, G106A, S107G, H108Y, H109Y
notes: also called Humanized VH variant #13
B7: SEQ ID NO 611 (other)
VH: EVQLVESGGGLVQPGGSLRLSCAASGFNIEHYSIGWVRRAPGKGEELVARIYPTNGYTRYADSVKGRFTISADTSKNTAYLQMNSLRAEDTAVYYCARHHYYGYHSGYHHYAIDYSGQGTLVTVSS
notes: also called Humanized VH variant #6
B8: SEQ ID NO 620 (other)
VH: B4 VH with E30Y, Y31D, E32H, E100S, H103G, S105Y
notes: also called Humanized VH variant #15
B9: SEQ ID NO 610 (other)
VH: EVQLVESGGGLVQPGGSLRLSCAASGFNIEYYSIGWVRRAPGKGEELVARIYPTNGYTRYADSVKGRFTISADTSKNTAYLQMNSLRAEDTAVYYCAREYYSYHDEYEYDYALDYSGQGTLVTVSS
notes: also called Humanized VH variant #5
B10: SEQ ID NO 607 (other)
VH: B4 VH with E30Y, Y31S, E100Y, S105D, S107H, H108Y, A112G
notes: also called Humanized VH variant #2
B11: SEQ ID NO 609 (other)
VH: B7 VH with E30Y, H31S, H99E, Y102H, H105Y, S106D, Y108A, H110Y, I113L
notes: also called Humanized VH variant #4
B12: SEQ ID NO 619 (other)
VH: B4 VH with E30S, Y31H, E32Y, R39H, S99H, E100H, S105D, S107H, H108S, A112G
notes: also called Humanized VH variant #14
B13: SEQ ID NO 612 (other)
VH: EVQLVESGGGLVQPGGSLRLSCAASGFNISSSDIGWVRRAPGKGEELVARIYPTNGYTRYADSVKGRFTISADTSKNTAYLQMNSLRAEDTAVYYCARYYYYDDDGYYYEHAIDYSGQGTLVTVSS
notes: also called Humanized VH variant #7
B14: SEQ ID NO 608 (other)
VH: EVQLVESGGGLVQPGGSLRLSCAASGFNISYYSIGWVRRAPGKGEELVARIYPTNGYTRYADSVKGRFTISADTSKNTAYLQMNSLRAEDTAVYYCARYHHSEYSDYYGYYSEYGFDYSGQGTLVTVRS
notes: also called Humanized VH variant #3
B15: rovalpituzumab (antibody, V domains shown)
VH: QVQLVQSGAEVKKPGASVKVSCKASGYTFTNYGMNWVRQAPGQGLEWMGWINTYTGEPTYADDFKGRVTMTTDTSTSTAYMELRSLRSDDTAVYYCARIGDSSPSDYWGQGTLVTVSS
VL: EIVMTQSPATLSVSPGERATLSCKASQSVSNDVVWYQQKPGQAPRLLIYYASNRYTGIPARFSGSGSGTEFTLTISSLQSEDFAVYYCQQDYTSPWTFGQGTKLEIK
notes: IgG expressed in Expi293; the entries called heavy and light chain are variable domains; also called MYT0638

Residue numbers refer to the chain shown, from its start.

Binding result and KD data for 15 molecules are collected here from patent US20220313845A1 (MYTHIC THERAPEUTICS, published 2022).

In general, KD refers to the free concentration of one partner at which half of the binding sites on the other are occupied at equilibrium, for simple one-to-one binding. Read a low KD as higher affinity.

The first test concerns the target T1, recombinant human DLL3 extracellular …. The test can be described thus: phage ELISA after three rounds of panning on biotinylated recombinant human DLL3. From the text:
Multiple ABPC display systems, including phage display systems and those with ABPCs based on VH domains, have been described in the literature and can be used as a template for selection of pH engineered ABPCs using panning (Scroter C (2015) “A generic approach to engineer antibody pH switches using combinatorial histidine scanning libraries and yeast display” mAbs, 7:1, 138-151; Bonvin P (2015) “De novo isolation of antibodies with pH-dependent binding properties” mAbs, 7:2, 294-302; Traxlmayr P (2014) “Construction of pH-sensitive Her2-binding IgG1-Fc by directed evolution” Biotechnology Journal 9(8): 1013-1022; Gera N (2012) “Design of pH sensitive binding proteins from the hyperthermophilic Sso7 d scaffold” PLOS ONE 7 (11) e48928). pH engineered anti-DLL3 variants were selected by screening a proprietary humanized VH domain phage display library. Humanized VH library was screened against soluble recombinant human DLL3 extracellular domain (R&D Systems, Cat #9749-DL) in three rounds of selections with successively lower concentrations to isolate pH dependent anti-DLL3 VH domains. Briefly, the library was depleted for non-specific binders by incubating with Dynal M-280 streptavidin beads, bound antibodies were separated via a magnet and supernatant was collected for positive selection with human DLL3. Depleted library was further incubated with biotinylated recombinant human DLL3 at pH 7.4 for 1-3 hours at room temperature. Dynal streptavidin beads were added to the mixture to capture human DLL3 bound antibodies and washed 3× with a pH 7.4 buffer. Bound antibodies were eluted from beads using 0.1 M glycine pH 2.7 which was then neutralized with 1M Tris pH 7.4.
A general note: In an ELISA, binding on a coated surface is turned into a signal by an enzyme label.
For the molecule B1, the binding result is recorded as “binds”. Consider B2, for which the binding result is “binds”.

Regarding B3, the binding result is “binds”. On to B4, for which the binding result was “binds”. Still for that read-out and setting: as for B5, the entry is “binds”; as for B6, “binds”.

As for B7, the binding result is recorded as “binds”. Still for that read-out and setting: as for B8, the entry is “binds”; as for B9, “binds”; as for B10, “binds”. On the same count and under the same terms, as for B11, the entry is “binds”. With B12, the binding result is recorded as “binds”. Regarding B13, the binding result is reported as “binds”. Still for that read-out and setting: then B14, with “binds”.

A further test deals with T2, DLL3 on NCI-H82 cells. The test can be described thus: flow cytometry titration on NCI-H82 cells, Alexa Fluor 488 anti-human IgG; Example 37 calls the fitted value a dissociation constant KD. How it is done: FIGS. 20a-c: Characterization of binding affinity for anti-DLL3 mAbs. Anti-DLL3 mAbs were assayed for their binding to NCI-H82 cells.
Binding affinity of selected anti-DLL3 pH engineered antibody variants from Examples 9-13 were measured on NCI-H82 cells. 100,000 cells per well were resuspended in 900 μL FC buffer in a 96 well deep well plate. Rovalpituzumab and pH engineered antibody variants were serially diluted at a 1:3 dilution. 100 μL of diluted antibody was added to each well with final concentration ranging from […] and incubated for 2 hours at 4° C. Post incubation, the cells were spun at 2000 rpm for 2 min and supernatant was discarded. Cells were washed twice with 500 μL of ice-cold FC buffer and resuspended with 100 μL of FC buffer. The cells were then transferred from the deep well plate to 96 well round bottom plate, spun at 2000 rpm for 2 min and incubated with 100 μL of 10 μg/mL Alexa Fluor 488 conjugated goat anti-human IgG secondary antibody (ThermoFisher Scientific, A11013) for 30 min. Post incubation, cells were washed with FC buffer and resuspended in 100 μL of FC buffer to read on a BD Accuri C6 flow cytometer. Binding affinity was measured as a dissociation constant KD by GraphPad Prism assuming Michaelis-Menten binding kinetics. […]
Background: In flow cytometry, cells or beads pass a laser one at a time.
In turn, B15 yielded an equilibrium dissociation constant (KD) of 8 pM.
